The values that follow come from patent US20230364014A1, “SELF-ASSEMBLED GELS FOR CONTROLLED DELIVERY OF BIOLOGICS AND METHODS OF MAKING THEREOF” (Alivio Therapeutics, Inc., priority 2018, published 2023).

Series [1] is described as follows: Time-dependent loading of antibody into ascorbyl palmitate microfibers (HPLC). Format: physicochemical. The method, then:
The efficiency of antibody (i.e., IFX or ADA) loading into ascorbyl palmitate microfibers was found be time dependent. […] (and following 3 washes with PBS by centrifugation at 5000 rpm for 10 mins at 4° C.). However, by extending the loading/incubation time to 20 hours (2 hours at 22° C., 18 hours at 4° C.), the loading increased to 14% (wt/wt %).

Series [2] in a line: pKa / isoelectric point and pH-dependent loading into AP microfiber suspensions. Format: physicochemical. The settings on record: FIG. 4. From the text: Agent loading level can also be pH and/or charge-dependent and loading of the agent(s) may be controlled and/or optimized based using the pKa and isoelectric (pI) point of the agent. […] Accordingly, agent loading and encapsulation efficiency may be optimized/maximized by loading gel suspensions at a pH above the pKa of the gelator(s) and a pH which is below the isoelectric (pI) point of the agent(s) which are being loaded onto the gel.

Series [3] in a line: Encapsulation efficiency in self-assembled AP microfibers versus non-assembled AP powder suspension (Coomassie Assay). Conditions: 10 mg/mL AP mixed with equal volume of 2 mg/mL mAb in PBS, 22° C. for 2 hours, FIG. 5. Format: physicochemical. The method, then:
Ascorbyl palmitate (AP) microfiber suspensions were prepared using the self-assembly process described in Example 1 or, alternatively, using a non-assembled AP particulate used as-is from the manufacturer (USP grade ascorbyl palmitate, Sigma-Aldrich). […] After loading/incubation at 22° C. for 2 hours, the suspensions were centrifuged at 20,000×g for 10 minutes at 4° C. The supernatant was then removed and tested for soluble protein via the Coomassie Assay to determine the encapsulation efficiency.

For the next series, the target named is T1, TNF-α (Homo sapiens, UniProt P01375).
T1 construct: host or cells: added to murine fibroblast L929 cells
T1 sequence (P01375 77-233 limits assumed): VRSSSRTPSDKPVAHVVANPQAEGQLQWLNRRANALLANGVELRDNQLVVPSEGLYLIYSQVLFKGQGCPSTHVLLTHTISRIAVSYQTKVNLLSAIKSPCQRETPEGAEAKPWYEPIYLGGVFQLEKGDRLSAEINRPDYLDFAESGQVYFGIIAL
Description: TNF-α activity assay with fibroblast L929 cells (L929 viability assay). Format: cell-based. The settings on record: 1 ng/mL TNF-α in 2% serum, compared to IFX and ADA controls, FIG. 2. The procedure: Activity was measured using the TNF-α activity assay with fibroblast L929 cells (Gibco cytotoxicity assay for recombinant proteins).

The conditions of series [4]: cited from earlier work.

With infliximab [IFX], the loading in series [1] (after 10 minutes of loading/incubation at 22° C., following 3 washes with PBS) is 7 % (wt/wt %); in series [1] (loading/incubation time 20 hours (2 hours at 22° C., 18 hours at 4° C.)) it was 14 % (wt/wt %). In addition, in series [1] (calculated from amounts of IFX and AP combined during loading), the theoretical maximum loading entry was “approximately 16.7 % (wt/wt %)”.

Regarding adalimumab, the “influence of pH on loading and encapsulation efficiency” value in series [2] was “highest loading and encapsulation efficiencies are observed at a pH above the pKa of AP but below the pI”. The “encapsulation of antibody, self-assembled AP microfiber suspension relative to non-self-assembled AP powder suspension” value in series [3] is “greater encapsulation”. Also, the “activity of mAb released from gels against TNF-α” value at TNF-α is listed as “active against TNF-α”.

For `CCCCCCCCCCCCCCCC(=O)OC[C@H](O)[C@H]1OC(=O)C(O)=C1O` [AP, ascorbyl palmitate], the pKa (usually the pH at which an ionisable group is half protonated) in series [4] was 4.4.
